Test: soluble on expression in E. coli; label from the status in PepcDB or PDB records

Sequence | soluble on expression in E. coli
MGSDKIHHHHHHMTGIALSPIGALWGIVGAKTHGTVEMGAALTHRGCYMAMEEGPTFSFGARHSAEIWPISVDDDIAVVYSGFPFVVDEETRTPRYLSAEDIRTEFLRFGADFFRVLCGHYAIAVYCYTRHRLILVRDAFGVQSLSWASSNENFAFSTEYKALLSLPWVERNLDHDAARGFVDDGWAPAGRTFLRHISMVLPGSILIWQNGNLETIHLRQDLCKTRPPFRPISVRHVEMTVRETIGWQANDFSPRYGVMLSSGVDSAVIAATLRRIRRDSEIHTFTVGYGYDDPEIIGASATASVLGTQHHEIIVRPDALTALLTDTIVAVDNPGGYEEFPCLYALHQEARQFVDIIFSGNAADTLFAGMPYHRDLLSTDDAIYRRLCNDLTVRDERLAAQELLAGRHGLNFRMPYAERILIDLALEIPDFQKLSPENDKIIFREAARQILPDEITMRPKRIQHLLYDDSMCSWLAERIEWICSSSLLRTHSLGELEGAAILPPRNLELTEESFKAAWNVVALATWASIYLA | not soluble
MGSDKIHHHHHHMLTTLAINNYRSLRDIRLPLGRLNLVTGANGSGKSNLYKALRLLAQTAQGGVVNALAQEGGLDSCFWAGPENLTKGMLSGDTEITPTVRQQTKRLKLGFAGDEFSYLIELGLPKPDNTTLFGLDPQIKREAIWVGNKYRPAAVLVERRGPMVKGRAQQRGQDGWQSLNQHMQHGDSIFTELSDPSRTPEVLRLRDSIRAWRFYDHFRSDSEAPARQPQLGTRTPVLHHDGRDLASAIQTIFEIGDRESFDEAVSDAFPGAHVTIGYQAGGLLSVNFHQQGLLRPLNAQELSDGTLRYLLLIAALLTPRPPELMVLNEPETSLHPDLLPALARLIAKATKVCQLWVVSHANRLINALNEFEQCQLIELDKQLGQTRIVGQDLLSTPGWNWQQKAQG | not soluble
MGSDKIHHHHHHMTNHQHPQTTTQWIDLIANSELPAITSTARMLDKFSNDDKSSLPKLSEAILHDQGLSSCLLKVANNIQHISINKVTTVSRASVVLGIQSVKNICLTAKLVSSLLASKSLDINVYEQLTQLMANSFYAGMLAKMMVPNYSEEIQEEVYLAAMLYRIGESAFWSAGGDVAKKLANYEAKSPQDFNQYCRKEMGTNFSELSKGLAGTWNLSDLLIKALDQPTTRTDEVKVIYFADKLSAIIAKPEGCEEDYHKLLKEIAYIVGISVRQLTVRIEHTREQAEKLLSSYGAEILTERINSLPTAEDFKSLGGDFDTREVVSKDKALLNGFMKLTKLIQNSKDFNEYLQLTLESLALTFAFDRSSFLMLVDDRARVKSRLVVNKNAQDDASKINIDIKHSDNVIARVISTDTAALINDHQEIRWRDLVTEEISEVIVEGAIAFVPVKIGGKAIGVICLQLLSPDQKIETQDFQQICAFIDHLNMCLTMIKYS | not soluble
MREVKLVTFDVWNTLLDLNIMLDEFSHQLAKISGLHIKDVANAVIEVRNEIKKMRAQASEDPRKVLTGSQEALAGKLKVDVELVKRATARAILNVDESLVLEGTKEALQFVKERGLKTAVIGNVMFWPGSYTRLLLERFGLMEFIDKTFFADEVLSYKPRKEMFEKVLNSFEVKPEESLHIGDTYAEDYQGARKVGMWAVWINQEGDKVRKLEERGFEIPSIANLKDVIELISKT | soluble
SDSDSGEQSEGELSPGHESFNSKSLALQAQKKILSKMATMAVANLLTDDTSSEILDELYKASREYTKSKKEAHKIIKDVIKIALKIGILYRNHQFSPEEMETVERFKKKMNQAAMTVVSFYEVEYTFDRGILSELLLECRDLLHELVEHHLTMRSHGRIDHVFNHFADVDFLTELYGPSEDYRLNLRKICDGINKLLDEGTL | soluble
MGSDKIHHHHHHMYTREELMEIVSERVKKCTACPLHLNRTNVVVGEGNLDTRIVFVGEGPGEEEDKTGRPFVGRAGMLLTELLRESGIRREDVYICNVVKCRPPNNRTPTPEEQAACGHFLLAQIEIINPDVIVALGATALSFFVDGKKVSITKVRGNPIDWLGGKKVIPTFHPSYLLRNRSNELRRIVLEDIEKAKSFIKKEG | soluble
MIESERKQIIDLIKKEVIPAIGCTEPIAVALCVAKAAETLGMKPEKIEVLLSANILKNAMGVGIPGTDMVGLPIAVALGALIGRSEYQLEVLRDCTPEAVEQGKLFIAEKRICISLKEDITEKLYIEVICTAGSQKATAVIAGGHTTFVYIATDEKVLLDKQQTANEEEEDASLELNLRKVYDFALTSPLDEIRFILDTARLNKAAAEQAFKGNYGHSLGKMLRGTYEHKVMGDSVFSHILSYTSAACDARMAGAMIPVMSNSGSGNQGISATLPVVVFAEENGKTEEELIRALMLSHLTVIYIKQSLGRLSALCGCVVAATGSSCGITWLMGGNYNQVAFAVQNMIANLTGMICDGAKPSCALKVTTGVSTAVLSAMMAMEDRCVTSVEGIIDEDVDQSIRNLTRIGSQAMNETDKMVLDIMTHKGGC | not soluble
MGSDKIHHHHHHMLGKTAGGLYWLFRYLERSENTARLIETGFRIALTRPDGSDDEWRSVLQTAAVRDLYEGLYGEVEQAKAIDFLLRDRANPSSILSSISEARQNARLTRTALTREVWEAINDAYMNLKELLAHPVSAKTLPGTLATIRQHSALVRGAMHGTMLRTDIFDFCRLGTFIERADNTARILDVKYYVLLPSMTQVGSDLDNVQWETILRAVASHRSYRWLMGGETTPKGIADFLVFDTRMPRSLRFTVKKMASNLEYLAENYGQRHACHDQMDVLLARLKHGTIDEVFDDGLHEFLTEFLLDIGALGAQIESDYRFLG | not soluble
GHHHHHHMKVGYVAIVGKPNVGKSTLLNNLLGTKVSIISPKAGTTRMRVLGVKNIPNEAQIIFLDTPGIYEPKKSDVLGHSMVEIAKQSLEEADVILFMIDATEGWRPRDEEIYQNFIKPLNKPVIVVINKIDKIGPAKNVLPLIDEIHKKHPELTEIVPISALKGANLDELVKTILKYLPEGEPLFPEDMITDLPLRLLAAEIVREKAMMLTREEVPTSIAVKINEIKPGDANPNMLVIKGEIIVDRENLKPIIIGKKGQRLKEIGKRARQELELILGRPVYLELWVKVVPDWRRRPEYVRLFGYAL | soluble
REATWVTEKPLTLKIHMHFRDKWVWDENWPVAREVARLTNVKLVGVANRAATNSQEQFNLMMASGQLPDIVGGDNLKDKFIRYGMEGAFIPLNKLIDQNAPNLKAFFKTHPEVQRAITAPDGNIYYLPYVPDGLVSRGYFIRQDWLDKLHLKTPQTVDELYTVLKAFKEKDPNGNGKADEIPFINRDPEEVFRLVNFWGARSTGSNTWMDFYVENGKIKHPFAEVAFKDGIKHVAQWYKEGLIDPEIFTRKARSREQTFGNNIGGMTHDWFASTALFNDALSKNIPGFKLVPMAPPINSKGQRWEEDARQIPRPDGWAITATNKNPVETIKLFDFYFGPKGRELSNFGVPGLTYDIKNGKPVYKDTVLKAAQPVNNQMYDIGAQIPIGFWQDYEYERQWTNDVALQGIDMYIKNKYVLPQFTGVNLTVEEREIYDKYWPDVKTYMFEMGQSWVMGTKDPEKTWNDYQQQLKNRGFYQVMIVMQKAYDRQY | soluble
MANRGGEYLYDELWKLCAGPLVDVPQAQERVYYFPQGHMEQLEASTQQVDLNTMKPLFVLPPKILCNVMNVSLQAEKDTDEVYAQITLIPVGTEVDEPMSPDPSPPELQRPKVHSFSKVLTASDTSTHGGFSVLRKHATECLPPLDMTQQTPTQELVAEDVHGYQWKFKHIFRGQPRRHLLTTGWSTFVTSKRLVAGDTFVFLRGENGELRVGVRRANLQQSSMPSSVISSHSMHLGVLATARHATQTKTMFIVYYKPRTSQFIISLNKYLEAMSNKFSVGMRFKMRFEGEDSPERRYSGTVIGVKDCSPHWKDSKWRCLEVHWDEPASISRPNKVSPWEIEPFVNSENVPKSVMLKNKRPRQVSEVSALDVGITASNLWSSVLTQPHEFAQSCITSQWSSPQQCHRDANEDAKKSDWLNNSYSVSNVAKDSTLNDQMVSPVEQKKPETTANYRLFGIDLMSSSLAVPEEKTAPMRPINISKPTMDSHSDPKSEISKVSEEKKQEPAEGSPKEVQSKQSSSTRSRTKVQMQGVPVGRAVDLNALKGYNELIDDIEKLFDIKGELRSRNQWEIVFTDDEGDMMLVGDDPWPEFCNMVKRIFIWSKEEVKKMTPGNQLRMLLREVETTLTTTSKTDNHSN | soluble
MGSDKIHHHHHHMQILTVQMNIAGEWRDVAVVGFYAPEKGTGGPCVLNYDIEHVTSYFHQFAQTAVSVSLPVDNIPLRSPHWHRFLEDIMPAGSSRDYWVKRLGLQDMPNLERDFQLLKYGTIAPIGNLRIKESVPEKAKKSLPVTFSIADVSELQIDFIEYAQSRGAAAGGASGAGGAAPKLLVRLNEQQGVWIDTFQDDPRNLDQPYLVKFPRGKTTLDSDILRAEYHFYHELTQLGFETISVESMKLIEVERGPSLWLPRFDYGVEAGAMVSYGMESVYAILGEPTAKPLLHADVIRRLLAEFNKKENYGNTRTPLDVEAGLEGKSGIEAFVVEWVRRDLLNIAFGNSDNHGRNTSFIKHGNRVQLAPIYDFAPMKADYEMITRTFTWGEGMELGGVYNFPAIAEHLSDLLSPNDLMSALNETAVRLLGLELRLRQRGVPESILAHSGIGFATLEARMQQWGLL | not soluble
MRQDDLKLLGKIVTTHGIRGQLKVASFSGEFDTILSLETVVLKGKDGRMETFPVARATVHHDRVLLSLTPFTNINEVLHLISAVSYAHRDQFPPLEEGEYYWCDLIGLQVVTAAGTVIGRLDSILPTESHDVYVVRGADREYLIPAVEDVVVQVDLEAGTMTVSPPEGLLDLLEHHHHHH | soluble
MSLQLDLLPPQDRGQVHSVFVVVPRFNLTTLITMIETMRIGNYLSSERLFSWEVTSFDGLNLGASNGVRVHLDVEPDQTAPADQVFVLASWGGEHYQNKALASWLRKRARQGERICAVELGCYLVARAGLMDGKEATTHWSWINGFQEKFDQISVVEQLFTIDGRILTCAGGMAGVDLMLRLIEQSHGAGFSGEIADQMLHNEGHHHHHH | soluble
SNDAGAKTENTVDASPTPTNTPTDGDGDSAEEPVENTPAEPEPRPTPVEPEAMKTSDKAGAIAAAQYFVEVIEHSMHTSTTDLLEKYSYEKCSMCNEYKRTIAKRKDNGILVTNSQYEIKDLGPASLWGKKQLIWEVMLNLSVKEEYENFDESYTTEHSLLFYVTYLPDGWVLTEVTPASKK | not soluble
MGSDKIHHHHHHMINPIILPLDKVRNPRDLGSYVGYNGRKIKMHRLLRTGKISNITEHDKKFLLDYGLTKIIDLRSPFECKKAPDSQIPGVEHIDLSISTEDNTKGGKKDITKVFETYRKDQYAGFNMMCDRYRSHVMKEHAQHALHSILEVLANTKDGAIIYHCSEGKDRTGIVTVLILYLLGVDMETIRQDYLYSNYMLDNYRASRDKIMQENGENLCFRANMRILGSVSDAFLDTSLIAIHKNFGSLDNYLKEIIGVTPELRDTLRELYLED | not soluble
MGSDKIHHHHHHAQQAPAPCGLVPSARQLEWYNREMIAFFHFGINTFEEYVNEGDGKASTAIFNPTALDCRQWMQTLKAAGIPAAILTAKHADGFCLWPSKYTDYSVKNAAWKNGKGDVVREFVDACEEYGLKAGIYLGPHDRHEHLSPLYTTERYKEYYAHQLGELMSDYGKIWETWWDGAGADELTTPVYRHWYKIVREKQPDCVIFGTKNSYPFADVRWMGNEAGEAGDPCWATTDSVAIRDEAQYYKGLNEGMLDGDAYIPAETDVSIRPSWFYHAEEDSRVKSVRELWDIYCTSVGRNSVLLLNFPPDRRGLIHSTDSLHAALLKQGIDETFSTNLLRGAKVKATNVRGAKYSPEKMLDNEKNTYFAGKDGEVKADIIFTLPKTIEFDCLMIEEVIELGHRTTKWSVEYTVDGKNWITIPEATDKQAIGHKWIVRLAPVKAKQVRLRIQDGKACPAIHTFGVYKQSPVFKL | not soluble

— the DeepSol protein solubility set
